Test results from patent publication US20240309103A1 (Regeneron, published 2024).

Experiments:
[1] = target: T1, human NPR1 extracellular domain expressed with a C-terminal myc-myc-hexahistidine (hNPR1-MMH) (human, UniProt P16066 33-473); assay: SPR, mAb captured, 25 C
T1 construct: also called hNPR.mmh; monomeric human NPR1
Method: (§1) Equilibrium dissociation constant (KD) for different NPR1 reagents binding to purified anti-NPR1 monoclonal antibodies (mAbs) were determined using a real-time surface plasmon resonance based Biacore 4000 biosensor. All binding studies were performed in 10 mM HEPES, 150 mM NaCl, 3 mM EDTA, and 0.05% v/v Surfactant Tween-20, pH 7.4 (HBS-ET) running buffer at 25° C. and 37° C. The Biacore CM5 sensor chip surface was first derivatized by amine coupling with either mouse anti-human Fc specific mAb (GE Healthcare, #BR100839) or goat anti-human Fcy specific polyclonal antibody (Jackson ImmunoResearch Laboratories, #BR-1008-39) to capture anti-NPR1 mAbs.

[2] = target: T2, human NPR1 extracellular domain expressed with a C-terminal mouse IgG2a (hNPR1-mFc) (human); assay: SPR, mAb captured, 25 C
T2 construct: also called hNPR1-Fc; human NPR1 dimer
T2 chain: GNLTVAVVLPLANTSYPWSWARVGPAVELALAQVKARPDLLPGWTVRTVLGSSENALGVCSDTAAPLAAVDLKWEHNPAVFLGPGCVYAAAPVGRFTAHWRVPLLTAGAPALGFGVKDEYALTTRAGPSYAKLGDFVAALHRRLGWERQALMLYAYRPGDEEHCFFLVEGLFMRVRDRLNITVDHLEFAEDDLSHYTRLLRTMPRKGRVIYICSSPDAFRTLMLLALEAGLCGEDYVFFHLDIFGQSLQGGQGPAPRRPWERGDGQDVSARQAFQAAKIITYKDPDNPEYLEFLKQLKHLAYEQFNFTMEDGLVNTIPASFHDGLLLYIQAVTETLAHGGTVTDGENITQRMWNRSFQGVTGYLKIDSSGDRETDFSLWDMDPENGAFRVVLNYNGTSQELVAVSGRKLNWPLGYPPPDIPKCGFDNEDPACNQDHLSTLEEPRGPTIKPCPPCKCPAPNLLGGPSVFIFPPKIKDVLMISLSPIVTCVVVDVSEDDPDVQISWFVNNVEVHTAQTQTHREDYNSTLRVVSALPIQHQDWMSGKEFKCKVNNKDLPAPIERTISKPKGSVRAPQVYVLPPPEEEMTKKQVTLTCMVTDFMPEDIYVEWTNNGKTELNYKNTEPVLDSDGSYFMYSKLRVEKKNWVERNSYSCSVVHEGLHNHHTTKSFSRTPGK
Method: as §1

[3] = target: T3, monkey NPR1 extracellular domain expressed with a C-terminal myc-myc-hexahistidine (mfNPR1-MMH) (monkey, UniProt P16066 33-473 (human entry)); assay: SPR, mAb captured, 25 C
T3 construct: also called monomeric monkey NPR1
T3 chain: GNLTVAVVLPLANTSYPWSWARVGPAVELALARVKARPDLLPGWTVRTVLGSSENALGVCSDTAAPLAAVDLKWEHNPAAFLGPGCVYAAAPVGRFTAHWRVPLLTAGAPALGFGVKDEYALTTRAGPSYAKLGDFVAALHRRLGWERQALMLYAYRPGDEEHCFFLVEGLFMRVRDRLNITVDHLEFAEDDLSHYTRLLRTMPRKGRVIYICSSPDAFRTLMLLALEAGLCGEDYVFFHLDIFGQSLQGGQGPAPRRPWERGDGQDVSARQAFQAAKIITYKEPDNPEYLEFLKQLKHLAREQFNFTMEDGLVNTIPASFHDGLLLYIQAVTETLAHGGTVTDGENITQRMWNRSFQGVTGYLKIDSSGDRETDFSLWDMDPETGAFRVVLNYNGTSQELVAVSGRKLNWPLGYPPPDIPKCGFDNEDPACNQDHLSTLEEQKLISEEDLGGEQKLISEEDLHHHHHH
Method: as §1

[4] = target: T4, mouse NPR1 extracellular domain expressed with a C-terminal myc-myc-hexahistidine (mNPR1-MMH) (mouse, UniProt P18293 29-469); assay: SPR, mAb captured, 25 C
Method: as §1

[5] = target: T5, mouse NPR1 extracellular domain expressed with a C-terminal mouse IgG2a (mNPR1-mFc) (mouse); assay: SPR, Tables 21 to 26
T5 chain: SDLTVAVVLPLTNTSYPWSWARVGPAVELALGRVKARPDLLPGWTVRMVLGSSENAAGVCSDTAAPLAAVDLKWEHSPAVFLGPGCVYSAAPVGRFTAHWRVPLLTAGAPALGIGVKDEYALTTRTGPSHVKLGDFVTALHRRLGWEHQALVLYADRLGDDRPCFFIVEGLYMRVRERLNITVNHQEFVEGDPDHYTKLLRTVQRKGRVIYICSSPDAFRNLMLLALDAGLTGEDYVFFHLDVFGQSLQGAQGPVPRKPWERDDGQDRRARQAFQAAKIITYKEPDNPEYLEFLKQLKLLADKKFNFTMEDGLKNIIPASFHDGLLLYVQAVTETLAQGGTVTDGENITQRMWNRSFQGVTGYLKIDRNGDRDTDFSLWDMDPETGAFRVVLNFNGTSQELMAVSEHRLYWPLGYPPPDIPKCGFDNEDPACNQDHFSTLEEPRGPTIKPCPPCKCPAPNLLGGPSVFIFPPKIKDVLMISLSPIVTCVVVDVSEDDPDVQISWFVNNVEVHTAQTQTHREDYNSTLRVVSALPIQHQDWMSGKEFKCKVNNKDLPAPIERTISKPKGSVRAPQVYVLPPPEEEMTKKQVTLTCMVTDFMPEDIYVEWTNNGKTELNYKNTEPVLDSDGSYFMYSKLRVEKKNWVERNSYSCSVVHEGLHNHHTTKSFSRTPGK
Method: as §1

[6] = target: T1, human NPR1 extracellular domain …; assay: SPR, mAb captured, 37 C
Method: as §1

[7] = target: T2, human NPR1 extracellular domain …; assay: SPR, mAb captured, 37 C
Method: as §1

[8] = target: T3, monkey NPR1 extracellular domain …; assay: SPR, mAb captured, 37 C
Method: as §1

[9] = target: T4, mouse NPR1 extracellular domain …; assay: SPR, mAb captured, 37 C
Method: as §1

T1 sequence (P16066 other isoform, or with tags, fused parts or gaps): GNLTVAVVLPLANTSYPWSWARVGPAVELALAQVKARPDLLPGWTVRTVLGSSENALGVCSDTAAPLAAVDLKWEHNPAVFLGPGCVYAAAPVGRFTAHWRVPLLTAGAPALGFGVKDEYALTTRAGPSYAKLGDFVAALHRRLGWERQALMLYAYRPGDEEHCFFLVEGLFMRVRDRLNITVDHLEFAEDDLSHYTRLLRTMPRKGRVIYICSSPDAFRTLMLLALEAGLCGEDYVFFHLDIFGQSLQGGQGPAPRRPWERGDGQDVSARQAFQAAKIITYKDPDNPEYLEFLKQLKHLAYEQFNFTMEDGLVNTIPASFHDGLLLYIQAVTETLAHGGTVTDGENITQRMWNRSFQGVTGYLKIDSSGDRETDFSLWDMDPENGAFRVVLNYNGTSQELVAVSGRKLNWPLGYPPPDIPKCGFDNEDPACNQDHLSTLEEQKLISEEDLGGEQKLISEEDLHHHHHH

B1: mAb25491 (antibody, V domains shown)
VH: QVQLVQSGAEVMKPGASVKVSCKASGYTFTGYYIHWVRQAPGQGLEWMGWITPNSGATNYAQKFQGRVTLTRDTSISTAYMELTRLKSDDTAVYYCARGGQLEFFYYYYGMDVWGQGTTVTVSS
VL: DIQMTQSPSSLSASAGDRVTITCRASQSIDSYLNWYQQKPGKAPKLLISATSGFQSGVPSRFSGSGSGTDFTLTISSLQPEDFGTYYCQQSYTTPITFGQGTRLEIK
- 100 nM Ag Bound (RU) [1]: 37 RU
- Kd [1]: 37.6 nM
- koff [1]: 0.000983 s⁻¹
- kon [1]: 26200 M⁻¹ s⁻¹
- t½ [1]: 11.7 min
- 100 nM Ag Bound (RU) [2]: 36 RU
- Kd [2]: 1.24 nM
- koff [2]: 0.000124 s⁻¹
- kon [2]: 101000 M⁻¹ s⁻¹
- t½ [2]: 92.8 min
- 100 nM Ag Bound (RU) [3]: 81 RU
- Kd [3]: 30.5 nM
- koff [3]: 0.00128 s⁻¹
- kon [3]: 42000 M⁻¹ s⁻¹
- t½ [3]: 9 min
- 100 nM Ag Bound (RU) [4]: 0 RU
- binding result [4]: no binding (tested: 100 nM)
- binding result [5]: no binding
- 100 nM Ag Bound (RU) [6]: 51 RU
- Kd [6]: 127 nM
- koff [6]: 0.00453 s⁻¹
- kon [6]: 35600 M⁻¹ s⁻¹
- t½ [6]: 2.5 min
- 100 nM Ag Bound (RU) [7]: 70 RU
- Kd [7]: 8.66 nM
- koff [7]: 0.000363 s⁻¹
- kon [7]: 41900 M⁻¹ s⁻¹
- t½ [7]: 31.8 min
- 100 nM Ag Bound (RU) [8]: 106 RU
- Kd [8]: 78.4 nM
- koff [8]: 0.00457 s⁻¹
- kon [8]: 58300 M⁻¹ s⁻¹
- t½ [8]: 2.5 min
- 100 nM Ag Bound (RU) [9]: 0 RU

B2: mAb25479 (antibody, V domains shown)
VH: QVQLVQSGAEVKKPGASVKVSCKASGYTFTGYYIHWVRQAPGQGLEWMGWINPNSIGTNYAQKFQGRVTLTRDTSISTAYMELSSLRSDDTAVYYCARGGSSSYYYYYYGMDVWGQGTTVTVSS
VL: DIQMTQSPSSLSASVGDRVTITCRASQSIDNYLNWYQQKPGKAPKLLIYVASSLQSGVPSRFSGSGSGTDFTLTISSLQPEDFATYYCQQSYSTPLTFGGGTKVEIK
- 100 nM Ag Bound (RU) [1]: 16 RU
- Kd [1]: 482 nM
- koff [1]: 0.00673 s⁻¹
- kon [1]: 14000 M⁻¹ s⁻¹
- t½ [1]: 1.7 min
- 100 nM Ag Bound (RU) [2]: 26 RU
- Kd [2]: 22.4 nM
- koff [2]: 0.000852 s⁻¹
- kon [2]: 38000 M⁻¹ s⁻¹
- t½ [2]: 13.6 min
- 100 nM Ag Bound (RU) [3]: 41 RU
- Kd [3]: 246 nM
- koff [3]: 0.00682 s⁻¹
- kon [3]: 27700 M⁻¹ s⁻¹
- t½ [3]: 1.7 min
- 100 nM Ag Bound (RU) [4]: 0 RU
- binding result [4]: no binding (tested: 100 nM)
- binding result [5]: no binding
- 100 nM Ag Bound (RU) [6]: 16 RU
- Kd [6]: 689 nM
- koff [6]: 0.0157 s⁻¹
- kon [6]: 22800 M⁻¹ s⁻¹
- t½ [6]: 0.7 min
- 100 nM Ag Bound (RU) [7]: 47 RU
- Kd [7]: 41.2 nM
- koff [7]: 0.00139 s⁻¹
- kon [7]: 33700 M⁻¹ s⁻¹
- t½ [7]: 8.3 min
- 100 nM Ag Bound (RU) [8]: 43 RU
- Kd [8]: 360 nM
- koff [8]: 0.0142 s⁻¹
- kon [8]: 39600 M⁻¹ s⁻¹
- t½ [8]: 0.8 min
- 100 nM Ag Bound (RU) [9]: 1 RU

B3: mAb25545 (antibody, V domains shown)
VH: QVQLVESGGGLVKPGGSLRLSCAASGFTFSDYHLSWIRQAPGKGLEWVSYIRSSGRTIDYAASVKGRFTISRDNAKNSLYLQMNSLRVEDTAVYYCARENWIVLKVYAGIVGAPLDQWGQGTLVTVSS
VL: not shown
- 100 nM Ag Bound (RU) [2]: 7 RU
- 100 nM Ag Bound (RU) [3]: 4 RU
- 100 nM Ag Bound (RU) [4]: 0 RU
- binding result [4]: no binding (tested: 100 nM)
- binding result [5]: no binding
- 100 nM Ag Bound (RU) [7]: 15 RU
- 100 nM Ag Bound (RU) [8]: 10 RU
- 100 nM Ag Bound (RU) [9]: 1 RU
